From patent US20210140973A1 (NITTO BOSEKI, published 2021)

Tests used:
[1] = target: T1, GST-tagged peptide H34 (H10 with proline for leucine at position 325) (human, UniProt P01861 221-324 = IgG part); assay: Western blot: E. coli lysate with the GST-tagged peptide, SDS-PAGE, PVDF membrane, POD-labelled antibody diluted 1000-fold, ECL
T1 construct: not shown: GST tag (glutathione S-transferase) linked to the N terminal, expressed from vector pGEX-6P-1

[2] = target: T2, GST-tagged peptide H37 (H10 with R289K and L325P) (human, UniProt P01861 221-324 = IgG part); assay: as above
T2 construct: not shown: N-terminal GST tag (from vector pGEX-6P-1) and any vector linker
T2 chain: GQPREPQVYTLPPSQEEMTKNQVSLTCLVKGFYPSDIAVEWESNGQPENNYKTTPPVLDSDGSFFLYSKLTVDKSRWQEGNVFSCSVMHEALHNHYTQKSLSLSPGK

[3] = target: T3, GST-tagged peptide H9 (positions 166 to 327 of the human IgG4 heavy chain constant region) (human, UniProt P01861 166-325 = IgG part); assay: as above
T3 construct: E. coli lysate on Western blot; not shown: GST tag (glutathione S-transferase) linked to the N terminal, expressed from vector pGEX-6P-1

[4] = target: T4, GST-tagged peptide H6 (positions 1 to 55 of the human IgG4 heavy chain constant region) (human, UniProt P01859 1-55 = IgG part); assay: as above
T4 construct: E. coli lysate on Western blot; not shown: GST tag (glutathione S-transferase) linked to the N terminal, expressed from vector pGEX-6P-1

[5] = target: T5, GST-tagged peptide H11 (positions 275 to 327 of the human IgG4 heavy chain constant region) (human, UniProt P01861 275-325 = IgG part); assay: as above
T5 construct: E. coli lysate on Western blot; not shown: GST tag (glutathione S-transferase) linked to the N terminal, expressed from vector pGEX-6P-1

[6] = target: T6, GST-tagged peptide H4 (positions 1 to 165 of the human IgG4 heavy chain constant region) (human, UniProt P01861 1-165 = IgG part); assay: as above
T6 construct: E. coli lysate on Western blot; not shown: GST tag (glutathione S-transferase) linked to the N terminal, expressed from vector pGEX-6P-1

[7] = target: T7, GST-tagged peptide H5 (positions 1 to 110 of the human IgG4 heavy chain constant region) (human, UniProt P01861 1-110 = IgG part); assay: as above
T7 construct: E. coli lysate on Western blot; not shown: GST tag (glutathione S-transferase) linked to the N terminal, expressed from vector pGEX-6P-1

[8] = target: Myeloma human IgM (Abcam) (human, UniProt P01871-1 1-453); assay: indirect ELISA, antigen coated 1 µg/mL, antibody 1 µg/mL; no-antigen well 0.042
Experimental: (§1) Myeloma human IgA1 (Abcam), Myeloma human IgA2 (Abcam), Myeloma human IgD (Abcam), Myeloma human IgE (Abcam), Myeloma human IgM (Abcam), Myeloma human IgG1 (EMD Millipore), Myeloma human IgG2 (EMD Millipore), Myeloma human IgG3 (Sigma-Aldrich Co. LLC), and Myeloma human IgG4 (EMD Millipore) were adjusted to 1 μg/mL with PBS(−). The adjusted samples were added to a 96-well plate (Thermo Fisher Scientific) by 100 μL, respectively. The plate was shaken by a shaker under the condition of 700 rpm and 25.0° C. for 1 hour. The solutions were discarded, the plate was cleaned with 300 μL of PBST 3 times, 100 μL of a blocking buffer solution was added to each well, and then the plate was stored at 4° C. one night or more. Similarly, after cleaning with PBST, the MaI4-08 and MaI4-09-produced antibodies were adjusted to 1 μg/mL with an antibody dilute buffer solution and then added to each well by 100 μL, and the plate was shaken under the same condition as mentioned above. Similarly, after cleaning with PBST, a HRP labeled anti-mouse IgG antibody (Abcam) diluted 4000-fold with an antibody dilute buffer solution was added to each well by 100 μL, and the plate was shaken under the same condition as mentioned above. Similarly, after cleaning with PBST, 100 μL of SureBlue (KPL) was added. 5 or 3 minutes later, 100 μL of 0.5 mol/L sulfuric acid (Wako Pure Chemical Corporation) was added to each of MaI4-08 and MaI4-09. Absorbance at a wavelength of 450 nm was measured with a microplate reader (BIO-RAD Laboratories, Inc.). As a result, a strong signal was given to Myeloma human IgG4 as compared to the other samples (Tables 2 and 3, and FIGS. 2 and 3).

[9] = target: T8, Myeloma human IgG4 (EMD Millipore) (human); assay: as above
T8 construct: Bought myeloma protein
Experimental: as §1

T6 sequence (P01861 1-165): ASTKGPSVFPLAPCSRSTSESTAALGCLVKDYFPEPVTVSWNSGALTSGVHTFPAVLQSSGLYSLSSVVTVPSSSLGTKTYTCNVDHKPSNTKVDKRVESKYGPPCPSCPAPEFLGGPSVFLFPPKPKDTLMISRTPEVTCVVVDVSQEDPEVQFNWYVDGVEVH
T3 sequence (P01861 other isoform, or with tags, fused parts or gaps): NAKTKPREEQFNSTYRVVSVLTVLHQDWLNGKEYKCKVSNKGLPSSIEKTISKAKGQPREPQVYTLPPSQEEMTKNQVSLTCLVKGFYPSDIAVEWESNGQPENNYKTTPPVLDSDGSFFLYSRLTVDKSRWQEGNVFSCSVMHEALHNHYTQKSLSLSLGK
T4 sequence (P01859 1-55): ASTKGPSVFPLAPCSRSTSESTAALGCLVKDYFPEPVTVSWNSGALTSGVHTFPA
Myeloma human IgM (Abcam), sequence (P01871 other isoform, or with tags, fused parts or gaps): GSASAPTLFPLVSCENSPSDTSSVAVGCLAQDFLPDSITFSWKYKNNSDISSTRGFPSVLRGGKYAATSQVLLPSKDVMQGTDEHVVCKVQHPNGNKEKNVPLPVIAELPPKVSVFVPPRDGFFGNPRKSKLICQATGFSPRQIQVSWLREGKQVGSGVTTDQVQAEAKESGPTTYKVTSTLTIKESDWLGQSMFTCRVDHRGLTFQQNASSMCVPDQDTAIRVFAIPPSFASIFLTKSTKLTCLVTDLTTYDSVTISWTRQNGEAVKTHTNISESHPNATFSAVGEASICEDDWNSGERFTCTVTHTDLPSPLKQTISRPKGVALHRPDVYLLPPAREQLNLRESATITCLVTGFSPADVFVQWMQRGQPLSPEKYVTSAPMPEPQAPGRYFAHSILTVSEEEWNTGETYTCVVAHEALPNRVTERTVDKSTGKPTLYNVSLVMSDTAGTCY
T7 sequence (P01861 1-110): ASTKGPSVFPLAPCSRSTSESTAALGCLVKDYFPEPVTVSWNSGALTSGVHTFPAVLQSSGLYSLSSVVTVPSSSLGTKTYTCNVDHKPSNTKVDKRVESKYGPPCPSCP
T8 sequence (constant, as listed by the source limits assumed): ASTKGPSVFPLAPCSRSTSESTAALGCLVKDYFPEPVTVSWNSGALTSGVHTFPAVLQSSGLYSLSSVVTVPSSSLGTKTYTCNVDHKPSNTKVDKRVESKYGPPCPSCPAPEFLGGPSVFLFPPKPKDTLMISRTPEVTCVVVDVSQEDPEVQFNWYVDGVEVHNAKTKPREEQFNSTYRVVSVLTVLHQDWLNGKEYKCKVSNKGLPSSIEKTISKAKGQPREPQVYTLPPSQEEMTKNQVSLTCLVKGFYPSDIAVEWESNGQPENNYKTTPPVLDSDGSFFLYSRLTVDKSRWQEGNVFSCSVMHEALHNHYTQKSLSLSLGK

B1: MaI4-08-produced antibody (antibody, IgG1, V domains shown)
VH: EVQLQQSGPELVKPGTSVKMSCKASGYIFTSYILHWVKQKPGQGLEWIAYINPYNDGTKYKEKFKGKGTLTSDKSSSTAYMELSSLTSEDSAVYYCARSGGGYGNYAWFAYWGPGTLVTVST
VL: DIQMTQSPSSLSASLGERVSLTCRASQDIGSSLNWLQQEPDGTIKRLIYATSSLDSGVPKRFSGSRSGSDYSLTISSLESEDFVDYYCLQYASYPPTFGAGTKLELK
notes: Purified on protein G from hybridoma culture supernatant; POD-labelled for the Western blots
- binding result [1]: binds
- binding result [2]: binds
- binding result [3]: binds
- binding result [4]: no binding
- binding result [5]: no binding
- binding result [6]: no binding
- binding result [7]: no binding
- absorbance at 450 nm [8]: 0.042
- absorbance at 450 nm [9]: 2.04
